Experimental data from PMC10436556, “Epigenetic control of type III interferon expression by 8-oxoguanine and its reader 8-oxoguanine DNA glycosylase1”.

Molecular target: NF-kB1/p50-p50 (recombinant) (UniProt P19838 1-433)
Experiment: EMSA; without OGG1, time course; WCL/NE: 10 mM Tris-HCl pH 7.5, 1 mM EDTA, 50 mM NaCl, 2 mM DTT, 5% glycerol, 0.5% NP-40, BSA, poly(I:C), RT 20 min; His-IRF3: 10 mM Tris pH 7.5, 50 mM KCl, 1 mM DTT, 1% glycerol, 5 mM MgCl2, 0.05% NP-40, poly(I:C), RT 30 min
Details: protein: recombinant; chain copies: 2; label: Cy5 on 3' end of bottom strand (Methods text says 5'-Cy5); blunt

Sequence of NF-kB1/p50-p50 (recombinant) (P19838 1-433): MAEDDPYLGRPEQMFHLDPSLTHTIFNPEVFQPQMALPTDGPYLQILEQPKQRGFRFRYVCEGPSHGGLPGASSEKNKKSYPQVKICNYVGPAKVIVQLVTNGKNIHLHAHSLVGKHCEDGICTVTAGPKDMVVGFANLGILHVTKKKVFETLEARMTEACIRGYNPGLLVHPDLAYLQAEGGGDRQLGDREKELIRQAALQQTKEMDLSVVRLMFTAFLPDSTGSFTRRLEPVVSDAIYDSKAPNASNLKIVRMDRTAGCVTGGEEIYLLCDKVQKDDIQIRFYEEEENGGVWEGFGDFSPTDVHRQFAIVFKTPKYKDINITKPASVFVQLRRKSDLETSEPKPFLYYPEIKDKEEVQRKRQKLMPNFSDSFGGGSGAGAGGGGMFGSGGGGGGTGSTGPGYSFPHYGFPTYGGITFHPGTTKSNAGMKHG

B1: Pr2 (dsDNA)
DNA 1: CTGTGTTTTCACTTTTCCTACATCAGCTGGGACTGCCCTTCTGTCAGGGATAA
DNA 2: TTATCCCTGACAGAAGGGCAGTCCCAGCTGATGTAGGAAAAGTGAAAACACAG
modifications: 8-oxoG at top position 48
binding result: binds
